Reference: US20260000781A1, “FC CONJUGATES INCLUDING AN INHIBITOR OF CD73 AND USES THEREOF” (Cidara Therapeutics, Inc., priority 2022, published 2026)

Assays:
[1] = molecular target: T1, recombinant human CD73 enzyme (human) (UniProt P21589); experiment: cell-based or functional assay
T1 sequence (looked up): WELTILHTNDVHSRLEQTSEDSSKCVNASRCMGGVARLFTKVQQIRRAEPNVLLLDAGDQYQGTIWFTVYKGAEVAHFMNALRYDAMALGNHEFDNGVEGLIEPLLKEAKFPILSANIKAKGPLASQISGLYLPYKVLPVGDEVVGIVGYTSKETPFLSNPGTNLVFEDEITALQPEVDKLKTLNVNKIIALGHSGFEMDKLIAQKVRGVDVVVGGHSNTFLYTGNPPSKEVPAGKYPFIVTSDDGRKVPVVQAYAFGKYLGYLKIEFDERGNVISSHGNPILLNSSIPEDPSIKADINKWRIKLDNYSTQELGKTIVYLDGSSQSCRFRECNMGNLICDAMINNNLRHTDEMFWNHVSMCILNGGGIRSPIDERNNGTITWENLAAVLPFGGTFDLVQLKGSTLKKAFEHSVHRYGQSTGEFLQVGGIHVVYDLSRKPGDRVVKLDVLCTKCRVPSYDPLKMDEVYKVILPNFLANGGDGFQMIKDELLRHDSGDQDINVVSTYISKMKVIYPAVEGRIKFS

[2] = molecular target: T2, human CD73 expressed on cells (human) (UniProt P21589); experiment: cell-based or functional assay
T2 sequence (looked up): T1 sequence (looked up)

| cell-free CD73 enzyme inhibition, maximal inhibition [1] | Substance | Cell internalization EC50 (nM), Fab-ZAP saporin assay, MDA-MB-231 [2] |
| --- | --- | --- |
| 80% | Oleclumab (antibody) | – |
| – | hIgG1 isotype control (antibody) | > 100 nM |
